Data as given in patent US20230090901A1 (GAMMADELTA THERAPEUTICS, published 2023).

B1: G4_18 (antibody, human IgG1, V domains shown)
VH: EVQLVESGAEVKKPGASVKVSCKASGYTFTGYYMHWVRQAPGQGLEWMGRINPNSGGTNYAQKFQGRVTMTRDASISTAYMELSRLRSDDTAVYYCARDLDLSSLDYWGRGTLVTVSS
VL: SSYELTQPPSVTESPGQTARITCSGDALAKQYAYWYQQKPGQAPVLVIYRDSERPSEIPERFSGSSSGTTVTLTISGVQAEDEADYYCQSADSSGTYTVFGGGTKLTVLG
notes: also called 1254_P01_H04; clone G4_18
B2: G4_20 (antibody, human IgG1, V domains shown)
VH: QVQLVESGAEVKKPGASVKVSCKASGGTFSSYAISWVRQAPGQGLEWMGGIIPIFGTANYAQKFQGRVTITVDKSTRTAYMELSSLRSKDTAVYYCARGNSRSDAFDIWGQGTMVTVSS
VL: SSYELTHPPSVSVSPGQTASITCSGDKLGDKFVSWYHQKPGQSPVLVIYQDSKRPSGIPERFSGSNSGNTATLTISGTRAMDEADYYCQAWDSSTVVFGGGTKLTVLG
notes: also called 1254_P02_G02; clone G4_20
B3: G4_27 (antibody, human IgG1, V domains shown)
VH: QVQLVQSGAEVKKPGESLKISCKSSGYSFTSYWIGWVRQMPGKGLEWMGIIYPGDSDTRYSPSFQGQVTFSADESISTAYLQWSSLKASDTAMYYCARHGAYGDYPDTFDIWGQGTLVTVSS
VL: SSYELTQDPAVSVALGQTVSITCQGDSLRNFYANWYQQKPGQAPVLVIYGKNNRPSGIPDRFSGSSSGNTASLTITGAQAEDEADYYCNSRDSSGNHLVFGGGTQLTVLG
notes: also called 1248_P02_C10; clone G4_27
B4: G4_12 (antibody, human IgG1, V domains shown)
VH: EVQLLESGGGLVQPGGSLRLSCAASGFTVSSNYMSWVRQAPGKGLEWVSVIYSGGSTYYADSVKGRFTISRHNSKNTLYLQMNSLRAEDTAVYYCARVANGDFLDYWGRGTLVTVSS
VL: SQSVLTQPASVSGSPGQSITISCTGTSSDVGGYNFVSWYQQHPGKAPKLMIYEVTNRPSGVPDRFSGSKSGNTASLTISGLQAEDEADYYCSSHASPRVFGTGTKVTVLG
notes: also called 1140_P01_G08; clone G4_12

Molecular target: T1, BSA (bovine, UniProt P02769)
T1 construct: coated at 3 µg/ml; also called bovine serum albumin, control antigen of the DELFIA ELISA
T1 sequence (P02769 25-607 limits assumed): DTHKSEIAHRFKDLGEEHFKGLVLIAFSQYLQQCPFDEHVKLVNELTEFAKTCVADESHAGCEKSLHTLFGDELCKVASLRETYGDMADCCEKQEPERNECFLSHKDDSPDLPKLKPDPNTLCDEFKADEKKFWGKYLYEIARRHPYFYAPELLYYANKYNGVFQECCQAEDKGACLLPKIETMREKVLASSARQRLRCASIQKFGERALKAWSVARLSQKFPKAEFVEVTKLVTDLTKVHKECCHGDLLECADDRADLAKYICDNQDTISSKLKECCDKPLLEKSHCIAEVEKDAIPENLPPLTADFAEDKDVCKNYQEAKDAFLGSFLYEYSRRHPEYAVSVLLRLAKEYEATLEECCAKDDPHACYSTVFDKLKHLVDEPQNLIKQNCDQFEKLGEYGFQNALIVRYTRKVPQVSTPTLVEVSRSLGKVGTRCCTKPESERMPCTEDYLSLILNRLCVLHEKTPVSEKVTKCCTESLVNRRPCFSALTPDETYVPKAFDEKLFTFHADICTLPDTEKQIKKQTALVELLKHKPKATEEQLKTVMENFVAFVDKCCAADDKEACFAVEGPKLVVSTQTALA
Assay: DELFIA ELISA, coated antigen;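 also: binding of antibody supernatants or protein-A purified antibodies to plate-coated antigen (3 µg/ml recombinant TCR or BSA), 1 h incubation at room temperature, DELFIA readout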
Method: (§1) A DELFIA ELISA binding method was also employed to assess binding of antibody supernatants or further protein-A purified antibody. In brief, MaxiSorp plates were coated with 3 μg/ml of antigen BSA or L1 (DV1-GV4), L2 (DV1-GV2), L3 (DV1-GV8), or L4 (DV2-GV4) recombinant TCR antigen. Plates were then washed with PBS, blocked with PBS/skimmed milk and then test article added and incubated for 1 hour at room temperature.

Binder	DELFIA ELISA response (FU)	binding result
B1	67 FU	no binding
B2	132 FU	no binding
B3	40 FU	no binding
B4	80 FU	no binding

Molecular target: L2 (DV1-GV2), soluble leucine zipper γδ TCR heterodimer of a delta variable 1 chain and a gamma variable 2 … (human)
Sequence (chain, as listed by the source mutant, chain 1 of 2): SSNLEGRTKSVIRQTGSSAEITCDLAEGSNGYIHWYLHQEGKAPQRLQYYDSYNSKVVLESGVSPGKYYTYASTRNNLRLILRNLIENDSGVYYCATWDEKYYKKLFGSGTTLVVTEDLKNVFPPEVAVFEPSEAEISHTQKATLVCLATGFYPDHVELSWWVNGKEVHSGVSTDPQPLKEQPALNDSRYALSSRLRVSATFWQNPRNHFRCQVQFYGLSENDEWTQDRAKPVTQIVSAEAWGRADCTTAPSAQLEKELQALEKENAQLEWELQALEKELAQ
Sequence (chain, as listed by the source mutant, chain 2 of 2): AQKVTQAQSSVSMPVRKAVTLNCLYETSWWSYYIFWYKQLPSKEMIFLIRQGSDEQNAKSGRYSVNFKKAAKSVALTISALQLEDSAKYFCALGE
Assay: DELFIA ELISA, coated antigen;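 also: binding of antibody supernatants or protein-A purified antibodies to plate-coated antigen (3 µg/ml recombinant TCR or BSA), 1 h incubation at room temperature, DELFIA readout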
Method: as §1

Binder	DELFIA ELISA response (FU)
B1	66 FU
B2	147 FU
B3	579 FU
B4	229 FU

Molecular target: L3 (DV1-GV8), soluble leucine zipper γδ TCR heterodimer of a delta variable 1 chain and a gamma variable 8 … (human)
Sequence (chain, as listed by the source mutant, chain 1 of 2): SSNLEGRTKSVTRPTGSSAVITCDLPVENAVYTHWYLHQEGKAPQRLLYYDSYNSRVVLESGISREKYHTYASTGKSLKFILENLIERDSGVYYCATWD
Sequence (chain, as listed by the source mutant, chain 2 of 2): as the sequence (chain, as listed by the source mutant, chain 2 of 2) above
Assay: DELFIA ELISA, coated antigen;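 also: binding of antibody supernatants or protein-A purified antibodies to plate-coated antigen (3 µg/ml recombinant TCR or BSA), 1 h incubation at room temperature, DELFIA readout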
Method: as §1

Binder	DELFIA ELISA response (FU)
B1	185 FU
B2	239 FU
B3	1690 FU
B4	252 FU

Molecular target: T2, L1 (DV1-GV4), soluble leucine zipper γδ TCR heterodimer of a delta variable 1 chain and a gamma variable 4 … (human)
T2 construct: also called bt-L1; not shown: histidine tag/linker said to follow the zipper
T2 sequence (main, as listed by the source, chain 1 of 2): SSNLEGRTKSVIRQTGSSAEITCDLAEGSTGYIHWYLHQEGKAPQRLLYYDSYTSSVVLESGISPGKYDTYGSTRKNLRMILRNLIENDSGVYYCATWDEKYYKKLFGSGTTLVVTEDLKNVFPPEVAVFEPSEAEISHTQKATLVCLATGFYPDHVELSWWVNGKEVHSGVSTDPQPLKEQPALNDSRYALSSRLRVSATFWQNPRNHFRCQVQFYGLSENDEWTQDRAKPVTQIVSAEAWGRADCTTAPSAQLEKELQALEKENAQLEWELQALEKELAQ
T2 sequence (main, as listed by the source, chain 2 of 2): as the sequence (chain, as listed by the source mutant, chain 2 of 2) above
Assay: DELFIA ELISA, coated antigen;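 also: binding of antibody supernatants or protein-A purified antibodies to plate-coated antigen (3 µg/ml recombinant TCR or BSA), 1 h incubation at room temperature, DELFIA readout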

Binder	DELFIA ELISA response (FU)
B1	197000 FU
B2	184000 FU
B3	138000 FU
B4	237000 FU

Molecular target: T2, L1 (DV1-GV4), soluble leucine zipper γδ …
Assay: SPR (Reichert 4SPR), L1 coupled to chip, IgG1 flowed, steady state 1:1 fit; average
Method: (§2) In brief, the binding affinity of the antibodies to target (i.e. the human Vγ4 chain of a γδ TCR) was established by SPR analysis using a Reichert 4SPR instrument (Reichert Technologies). […] All experiments were performed at room temperature, with the samples kept at 4° C. before flowing over the chip. Steady state fitting was determined according to Langmuir 1:1 binding using software TraceDrawer (Reichert Technologies).

Binder	Kd
B2	52.5 nM
B4	19 nM

Molecular target: T2, L1 (DV1-GV4), soluble leucine zipper γδ …
Assay: SPR (Reichert 4SPR), L1 coupled to chip, IgG1 flowed, steady state 1:1 fit; experiment 1
Method: as §2

Binder	Kd
B2	43 nM
B3	261 nM
B4	17.8 nM

Molecular target: T2, L1 (DV1-GV4), soluble leucine zipper γδ …
Assay: SPR (Reichert 4SPR), L1 coupled to chip, IgG1 flowed, steady state 1:1 fit; experiment 2
Method: as §2

Binder	Kd
B1	19.9 nM
B2	62.1 nM
B4	20.2 nM

Molecular target: T3, Vγ4 chain-bearing γδ TCR on primary human Vγ4+ T cells (skin, PBMC, gut) (human)
T3 construct: Polyclonal natural receptors; only the germline Vγ4 region is common to them; also called primary Vγ4+ T cells; primary skin-derived Vγ4+ T cells
T3 sequence (main, as listed by the source): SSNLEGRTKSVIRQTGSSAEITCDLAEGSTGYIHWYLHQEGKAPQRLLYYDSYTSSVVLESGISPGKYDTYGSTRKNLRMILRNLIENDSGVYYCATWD
Assay: flow cytometry titration on skin-derived Vγ4+ T cells, left plot, anti-human IgG1 secondary
Method: Detection was performed by addition of a secondary, fluorescent dye-conjugated antibody against human IgG1 (IS11-12E4.23.20). Cells were then fixed and acquired on the MACSQuant16 flow cytometer. Cells were gated as single, live, IgG1 (Vγ4)⁺. Data shown are the median fluorescent intensity (MFI) of secondary detection antibody detected bound to Vγ4⁺ cells.

Binder	EC50 (read off the curve)
B2	~2 µg/mL
B4	~1 µg/mL

Molecular target: T2, L1 (DV1-GV4), soluble leucine zipper γδ …
Assay: SPR (Reichert 4SPR), L1 coupled to chip, IgG1 flowed, steady state 1:1 fit; average column (one experiment)
Method: as §2

Binder	Kd
B1	19.9 nM
B3	261 nM
